The source of these data is US20250255905A1 (University of Texas, published 2025).

The assay has as its target T1, recombinantly produced human BCMA (human, UniProt Q02223 1-54, limits assumed).
T1 construct: also called B-cell maturation antigen; TNFRSF17
T1 sequence (looked up): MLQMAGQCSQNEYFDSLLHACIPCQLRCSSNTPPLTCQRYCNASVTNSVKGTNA
The assay is described as follows: flow cytometry; CAR-transduced cord blood NK cells stained with recombinantly produced human BCMA to detect the CAR on the surface. As for the experimental part: Following the incubation, the cells were transferred to a v-bottom 96-well plate for cell staining. The cells, after pelleted by centrifugation and washed with flow buffer, were stained in 1:10 Fc block with fluorescently conjugated mouse anti-human CD3, mouse anti-human CD56, mouse anti-human NKG2D, and recombinantly produced human BCMA for 30 minutes on ice in the dark. The stained cells were washed, resuspended in Sytox Viability Dye and recorded on an MACSquant flow cytometer. Data were exported and analyzed using FlowJo v10.6.2. Live CD3-CD56⁺BCMA⁺ […] excluding the viability dye were quantified.

B1: BCMA-DAP10 CAR (other)
chain: QITLRESGGDVVQPGRSLRLSCAASGFTFSSYAIHWVRQAPGKGLEWVAVTWHDGSNKYYAESVMGRFTISRDNSKNTLYLHMNSLRAEDTGVYYCARAKFGEPQYFQHWGQGTLVTVSSGGGGSGGGGSGGGGSDIVMTQSPSFLSASVGDRVTITCRASQGINNYLAWYQQKPGIAPKLLIYAASTLQSGVPSRFGGSGSGTEFTLTISSLQPEDFATYYCQQLKSYPFTFGPGTKVEIKRAAAIEVMYPPPYLDNEKSNGTIIHVKGKHLCPSPLFPGPSKPKDPKFWVLVVVGGVLACYSLLVTVAFIIFWVLCARPRRSPAQEDGKVYINMPGRGRVKFSRSADAPAYQQGQNQLYNELNLGRREEYDVLDKRRGRDPEMGGKPRRKNPQEGLYNELQKDKMAEAYSEIGMKGERRRGKGHDGLYQGLSTATKDTYDALHMQALPPR
notes: It leaves out the signal peptide, E2A and IL-15; E2A residues left at the C-terminus after cleavage are not described; also called BCMA CAR; BCMA targeting CAR
In the case of B1, the binding result was “binds”.
